This is an account of results in publication PMC3668541, “Production of recombinant 1-deoxy-D-xylulose-5-phosphate synthase from Plasmodium vivax in Escherichia coli^” (FEBS Open Bio, 2013).

By Ki is commonly meant the dissociation constant of the complex between target and ligand, obtained from inhibition or displacement. As a reminder, the stoichiometry N is a count of units in the complex or per binding partner. As usually defined, the Km is the concentration of substrate that gives half-maximal velocity. Usually kcat stands for the number of substrate molecules converted per active site and unit of time at saturation. By kcat/Km is commonly meant the second-order rate constant that governs catalysis at low substrate concentration.

Series [1] addresses T1, P. vivax DXScc (DXS SH-2, DXS catalytic core) (Plasmodium vivax, UniProt A5K817).
T1 construct: gene PVX_082790; catalytic core, N-terminal first 210 residues (signal and transit peptide) deleted; codon-optimized gene in E. coli; theoretical monomer 103,921 Da; homodimer
T1 sequence (A5K817 211-1111): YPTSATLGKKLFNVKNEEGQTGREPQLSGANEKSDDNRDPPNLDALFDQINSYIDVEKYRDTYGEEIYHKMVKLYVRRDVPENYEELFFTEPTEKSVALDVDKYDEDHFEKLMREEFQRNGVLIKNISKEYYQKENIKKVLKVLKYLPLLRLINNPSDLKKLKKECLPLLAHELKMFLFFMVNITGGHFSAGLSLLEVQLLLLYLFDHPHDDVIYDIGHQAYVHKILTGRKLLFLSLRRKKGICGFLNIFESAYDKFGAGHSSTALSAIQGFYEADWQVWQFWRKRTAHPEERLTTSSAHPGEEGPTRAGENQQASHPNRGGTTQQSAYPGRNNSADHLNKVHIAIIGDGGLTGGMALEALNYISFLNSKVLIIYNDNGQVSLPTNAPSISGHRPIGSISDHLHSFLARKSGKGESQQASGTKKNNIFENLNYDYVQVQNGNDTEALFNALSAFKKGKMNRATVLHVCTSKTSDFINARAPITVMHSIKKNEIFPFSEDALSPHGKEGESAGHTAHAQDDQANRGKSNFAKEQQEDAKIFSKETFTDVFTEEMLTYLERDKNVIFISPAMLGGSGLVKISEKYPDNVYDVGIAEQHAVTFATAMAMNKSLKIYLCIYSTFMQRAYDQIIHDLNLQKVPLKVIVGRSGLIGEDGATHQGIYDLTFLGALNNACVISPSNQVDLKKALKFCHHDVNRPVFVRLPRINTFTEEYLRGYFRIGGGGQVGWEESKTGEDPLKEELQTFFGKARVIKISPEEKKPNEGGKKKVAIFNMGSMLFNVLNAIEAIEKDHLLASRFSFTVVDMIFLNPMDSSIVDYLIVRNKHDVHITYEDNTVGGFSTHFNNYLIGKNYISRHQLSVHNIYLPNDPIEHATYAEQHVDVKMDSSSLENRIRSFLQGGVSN
Description: DXS–DXR coupled assay. It counts as biochemical.

Series [2] concerns the target Plasmodium vivax 1-deoxy-D-xylulose-5-phosphate synthase catalytic core (DXScc) (Plasmodium vivax). In words: SEC; gel filtration chromatography under non-denaturing conditions of DXScc after Ni-NTA affinity chromatography; buffer and column not shown (Supplementary material). In general terms: SEC sorts molecules by how far they enter the pores of the column.
Substrate in series [3]: CC(=O)C(=O)O
In words: DXS–DXR coupled assay. It counts as biochemical, Plasmodium vivax. The settings on record: apparent; 0.1 mM GAP. The source says: (§1) DXS–DXR coupled assay on P. vivax DXScc (DXS SH-2, DXS catalytic core)

Substrate in series [4]: O=C[C@H](O)COP(=O)(O)O
Description: DXS–DXR coupled assay. It counts as biochemical, Plasmodium vivax. The settings on record: apparent; 4.0 mM pyruvate.
From the text: as §1

On to `O=C(O)C(=O)CF` [β-fluoropyruvate], for which, in series [1], the Ki turned out to be 200 ± 100 µM.
Molecule “Plasmodium vivax 1-deoxy-D-xylulose-5-phosphate synthase catalytic core (DXScc) (enzyme)” yielded a stoichiometry N in series [2] of 2.

B1: P. vivax DXScc (DXS SH-2, DXS catalytic core) (Plasmodium vivax Sal-1) (protein)
chain: YPTSATLGKKLFNVKNEEGQTGREPQLSGANEKSDDNRDPPNLDALFDQINSYIDVEKYRDTYGEEIYHKMVKLYVRRDVPENYEELFFTEPTEKSVALDVDKYDEDHFEKLMREEFQRNGVLIKNISKEYYQKENIKKVLKVLKYLPLLRLINNPSDLKKLKKECLPLLAHELKMFLFFMVNITGGHFSAGLSLLEVQLLLLYLFDHPHDDVIYDIGHQAYVHKILTGRKLLFLSLRRKKGICGFLNIFESAYDKFGAGHSSTALSAIQGFYEADWQVWQFWRKRTAHPEERLTTSSAHPGEEGPTRAGENQQASHPNRGGTTQQSAYPGRNNSADHLNKVHIAIIGDGGLTGGMALEALNYISFLNSKVLIIYNDNGQVSLPTNAPSISGHRPIGSISDHLHSFLARKSGKGESQQASGTKKNNIFENLNYDYVQVQNGNDTEALFNALSAFKKGKMNRATVLHVCTSKTSDFINARAPITVMHSIKKNEIFPFSEDALSPHGKEGESAGHTAHAQDDQANRGKSNFAKEQQEDAKIFSKETFTDVFTEEMLTYLERDKNVIFISPAMLGGSGLVKISEKYPDNVYDVGIAEQHAVTFATAMAMNKSLKIYLCIYSTFMQRAYDQIIHDLNLQKVPLKVIVGRSGLIGEDGATHQGIYDLTFLGALNNACVISPSNQVDLKKALKFCHHDVNRPVFVRLPRINTFTEEYLRGYFRIGGGGQVGWEESKTGEDPLKEELQTFFGKARVIKISPEEKKPNEGGKKKVAIFNMGSMLFNVLNAIEAIEKDHLLASRFSFTVVDMIFLNPMDSSIVDYLIVRNKHDVHITYEDNTVGGFSTHFNNYLIGKNYISRHQLSVHNIYLPNDPIEHATYAEQHVDVKMDSSSLENRIRSFLQGGVSN
notes: catalytic core, N-terminal first 210 residues (signal and transit peptide) deleted; codon-optimized gene in E. coli; theoretical monomer 103,921 Da; homodimer
In the case of B1, in series [3], the Km was determined as 870 ± 110 µM, the kcat is 9.5 ± 0.5 s⁻¹ and the kcat/Km amounted to 11000 M⁻¹ s⁻¹. For the same molecule, in series [4], the Km worked out at 19 ± 4 µM, the turnover number (kcat) was 11 ± 0.9 s⁻¹ and the catalytic efficiency (kcat/Km) was determined as 570000 M⁻¹ s⁻¹.
